Assays:
[1] = test system: peptide pulsed T2 cells; experiment: Epitope specific lysis by CTL from peptide-immunized HHD-A2 mice; assay type: in vivo; conditions: HHD-A2 mice immunized with peptide in complete Freund's adjuvants, spleen cells re-stimulated in vitro; HLA-A2+ T2 targets
Description: HHD-A2 mice were immunized with ED-B29-38 (SEQ ID NO. 103) in complete Freund's adjuvants and spleen cells were harvested and re-stimulated in vitro using standard methodology.

[2] = target: HLA-A2.1 (Homo sapiens, UniProt P04439, D140Y/D185E/D98H/E176V/E277Q/G131W/G231S/I119V/I121R/I166T/I218V/L300P/L318F/N151K/N90K/P208A/P217A/Q86G/Q94H/R138H/R169H/T345S); experiment: HLA-A*0201 binding assay (stabilization of surface HLA-A2.1 on T2 cells, flow cytometry); conditions: for binding to HLA-A2.1: T2 cells, peptide 6.25-800 μg/ml, compared with control peptides
[3] = test system: HLA-A1+ CD8+ T cells; experiment: gamma-IFN-based ELISPOT assay; assay type: cell-based, human; conditions: IFN production blocked by anti-HLA-A1 monoclonal antibody
Protocol: The wells of a nitrocellulose-backed microtiter plate were coated with capture antibody by incubating overnight at 4° C. using 50 μl/well of 4 μg/ml murine anti-human −IFN monoclonal antibody in coating buffer (35 mM sodium bicarbonate, 15 mM sodium carbonate, pH 9.5). Unbound antibody was removed by washing 4 times 5 min. with PBS. Unbound sites on the membrane then were blocked by adding 200 μl/well of RPMI medium with 10% serum and incubating 1 hr. at room temperature. Antigen stimulated CD8^+ T cells, in 1:3 serial dilutions, were seeded into the wells of the microtiter plate using 100 μl/well, starting at 2×10^5 cells/well. […] Following this incubation the plates were washed with 6 times 200 μl/well of PBS containing 0.05% Tween-20 (PBS-Tween). Detection antibody, 50 μl/well of 2 μg/ml biotinylated murine anti-human −IFN monoclonal antibody in PBS+10% fetal calf serum, was added and the plate incubated at room temperature for 2 hrs. Unbound detection antibody was removed by washing with 4 times 200 μl of PBS-Tween. 100 μl of avidin-conjugated horseradish peroxidase (Pharmingen, San Diego, Calif.) was added to each well and incubated at room temperature for 1 hr. Unbound enzyme was removed by washing with 6 times 200 μl of PBS-Tween. […] The plate was air dried and the spots counted using a stereomicroscope.
No reactivity is detected from cultures without peptide (data not shown).

[4] = target: T1, HLA-A2.1 (HLA-A*0201) on T2 cells (human); experiment: T2 cell HLA-A2.1 stabilisation, flow cytometry with FITC anti-HLA-A2
T1 construct: MHC class I molecule on T2 cells; also called HLA-A2+ T2 cells

Molecule	binding to HLA-A2.1 [2]	other results
TIIGYRITVV (Homo sapien) [SEQ ID NO 103]	–	epitope specific lysis by CTL [1]: able to specifically lyse peptide pulsed T2 cells
MMNDQLMFL [SEQ ID NO 39]	significant binding at even lower concentrations than the positive control peptide	–
TLRVDCTPL (Homo sapien) [SEQ ID NO 32]	binds nearly as well	–
GLPSIPVHPI (Homo sapien) [SEQ ID NO 21]	significant binding at even lower concentrations than the positive control peptides	–
RVDCTPLMY [SEQ ID NO 35]	–	HLA restriction of the response [3]: HLA-A1-restricted response
RMMNDQLMFL (Homo sapien) [SEQ ID NO 40]	significant binding at even lower concentrations than the positive control peptide	binding activity / affinity by comparison to the controls ([2]; not run in parallel): approaches the Melan A peptide in affinity
GMPEGDLVYV (Homo sapien) [SEQ ID NO 6]	significant binding at even lower concentrations than the positive control peptides	–
MMNDQLMFL [PSMA663-671]	–	binding result [4]: binds

Source: US7252824B2, “Anti-neovasculature preparations for cancer” (Mannkind Corporation, priority 2001, dated 2007)
